Measurements taken from PMC7735678, “Auxin response factors (ARFs) differentially regulate rice antiviral immune response against rice dwarf virus”.

Target: T1, GST-OsARF12 DBD (Oryza sativa (cDNA of ZH11), UniProt Q0J951 121-247)
T1 sequence: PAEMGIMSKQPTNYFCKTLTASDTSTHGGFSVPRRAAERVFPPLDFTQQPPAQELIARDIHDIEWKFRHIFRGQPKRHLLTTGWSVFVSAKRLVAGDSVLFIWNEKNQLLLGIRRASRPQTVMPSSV
Test: EMSA; LightShift Chemiluminescent EMSA Kit (Thermo Scientific); buffer, salt, pH and temperature not stated
Conditions: protein: recombinant, tags: GST (N-terminal, pGEX-4T-1), blunt

B1: OsWRKY13 promoter AuxRE probe (dsDNA)
DNA 1: TGGTTCGTGATTAAGGGTTTGGTTACACCGTGTCCCGCTCACGGATAGGCTGCTTAATTCTCTTT
DNA 2: AAAGAGAATTAAGCAGCCTATCCGTGAGCGGGACACGGTGTAACCAAACCCTTAATCACGAACCA
Q: Does B1 bind (label: biotin)?
A: binds

B2: OsWRKY13 AuxRE mutant probe (mCold) (dsDNA)
DNA 1: GTTACACCGAAAAAAGCTCACGGAT
DNA 2: ATCCGTGAGCTTTTTTCGGTGTAAC
Q: Does B2 bind (label: biotin as probe)?
A: no binding
